The data set can be described thus: yeast display, Sf9 membrane polyspecificity reagent, FACS + sequencing; frameworks hold sequencing errors. In outline:
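In a synthetic yeast display library (Saccharomyces cerevisiae BJ5465), nanobody expression was induced with galactose for 36–48 hours. FACS gates were set low and high (top ~1%) using anti-HA fluorescence for expression and streptavidin fluorescence for binding of the Sf9 membrane reagent. Each polyreactivity label is drawn from the gate of origin.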
With “QVQHVESGGGLVQAGGSLRLSGAASGSTFQSYAMGWYRQAPGQERELVAAISTSDTDRTYYADSVKGRFTISRDNAKNTVYLQMNSLKPEDTAVYYCNADGYAHGDWYGYWGQGTQVTVSS”, the “polyreactivity (PSR sort gate)” value is reported as “low polyreactivity”.

With “QVQHVESGGGLVQAGGSLRLSGAAYGRTFLYNAKGWNIQAPGKERELVAVISKRGGRTYYADSVKGRFTISRDNAKNTVYLQMKSLKPEDTAVYYCGAAYVTPPGPLRYNEYYWGQGSQVTVSS”, the “polyreactivity (PSR sort gate)” value is “high polyreactivity”.

With “QVQHVESGGGLVQAGGSLRLSIAASVFTFKGNAMGWYRQGPGKEMELVSTITQSGGSTYYADSVKGRFTISRDNAKNTVYLQMNSLKPEDTAVYFCNADPITLYYYSWYNYWGQGTQVTVSS”, the “polyreactivity (PSR sort gate)” value is recorded as “low polyreactivity”.

With “QVQHVESGGGLVQAGGSLRLSSAASGRTFGIYAMGWSRQAPGKERELVATISWRGGSTYYADSLKGRFTISRDNSKNTVYLQMNSLKPEDTAVDYCAAGYYPYWGQGTQVTVSS”, the “polyreactivity (PSR sort gate)” value was “low polyreactivity”.

For “QVQHVESGGGLVQAGGSLRLTCAASGNTFWWNAMGWYRQAPGKERELVAAISWRGGSTYYADSVKGRFTISRDNAKNTVYLQMKCLKPEDTAVYYCAKRNYHDESVVEEDYWGQGTQVTVSS”, the “polyreactivity (PSR sort gate)” value is recorded as “low polyreactivity”.

As for “QVQHVESGGGLVQAGGTLRLSCAASGSIFFWYGMGRYRQAPGKERELVAAITSGGISYYADSVKGRFTISRDNAKNTVYFQMNSLKPEDTAVYYCATRTYTYWGGSYPHYYWGQGSQVTVSS”, the “polyreactivity (PSR sort gate)” value is listed as “high polyreactivity”.

As to “QVQHVESGGGLVQAGLSLRLSCAASGRIFYGYAMGWYRQGPGQEREFVAAITSGGRTYYADSVKGRFTISRDNAKTTVYLQLNSLKPEDTAVYYCAAAQYYRYGYWGQGTQVTVSS”, the “polyreactivity (PSR sort gate)” value is “high polyreactivity”.

As to “QVQHVESGGGLVQAGRSLPLSCAASGSIFWDNALGWYRQATGKEMVLVAAITSCGDTTYYADSVKGRFTISRDNSKNTVYLQMNSLKPEDTAVYYCATDSNWYWGFNYWGQGTQVTVSS”, the “polyreactivity (PSR sort gate)” value is “low polyreactivity”.

Turning to “QVQHVESGGGLVQAGRSLRLICAASGRTFSRYALGWSRQAPGKERELVASIRSGGSTNYADSVKGRFTISRDNAKNTVYLQMNSLKPEDSAVYYCAKRGRLRNYDYWGQGTQVTVSS”, the “polyreactivity (PSR sort gate)” value is “high polyreactivity”.

On to “QVQHVESGGGLVQAGRSLRLSCAATGYIFWKNAMGWYRQAPGKERELVAGITIRGGRTYYADSVKGRFTISRDNAKNTVYLQMNSLKPEDTAVYYCAAGTGVSRYRYVYWGQGTQVTVSS”, for which the “polyreactivity (PSR sort gate)” value was “high polyreactivity”.

For the sequence “QVQHVESGGGLVQAGVSLRLSCAASGFTFYNYAMGWYRQAPGKERELVAAITSSGTSTYYADSVKGRFTISRDNAKNTVYLQMNSLKPEDTAVYYCNAVSSYYYSYDYWGQGTQVTVSS”, the “polyreactivity (PSR sort gate)” value is reported as “low polyreactivity”.

Consider “QVQHVESGGGLVQAGVSLRLSCAASGSTFRRYAMGWYRQSRGKERELVATISSRGGSTNYADSVKGRFTISRDNAKNTVYLQMNSLNPEDTSFYYCARSTSLVTKDDYWGQGTQVTVSS”, for which the “polyreactivity (PSR sort gate)” value is reported as “high polyreactivity”.

Take “QVQHVESGGGLVQARGSLRLSCAPSGFTFETNAMGWYRQAPGKEREFDAAISWTTTSTYFADSVKGRVTISRDNAKNTVYLQMNSLKPEDTAVYSCAVGLIREFGWDYDYWGQGTQVTVSS”: the “polyreactivity (PSR sort gate)” value is “low polyreactivity”.

For “QVQHVESGGGLVQAVGSLRLSCAASGRIVYYVMGWYRQAPGKERELVAAISTRGGSTYYADSVKGRFTISLDNAKNTVYLQMNSLTPEDTAVYYCAASSLLTRYNSWGQGTQVTVSS”, the “polyreactivity (PSR sort gate)” value was “high polyreactivity”.

For “QVQHVESGGGLVQAVGSLRLSSAASGSTIRYYAMGWYRQAPGKERELVASISSSGGSTFYADSVKGRFTISRDNAKNSVYLQMNSLKPEDTAVYYCARRYHYNMDYWGQGTQVTVSS”, the “polyreactivity (PSR sort gate)” value is “high polyreactivity”.

Regarding “QVQHVESGGGLVQPGGSLRLSCAASGNAMGWYRQAPGKERELVASINRSGGRTYYADSVKGSYTISRDNAKNTVYLQMNSLKPEDTAVYYCAARPHYDSDYWGQGTQVTVSS”, the “polyreactivity (PSR sort gate)” value was “low polyreactivity”.

In the case of “QVQHVESGGGLVQSGGSHRLSCAASGSTFSDNSLGWYRQAPAKERELVAAISRSGGSTYYADSVNGRFTISRDYAKNTVYLQMNSLIPEDTAVYYCATNRVLTGYDSWGQGTQVTVSS”, the “polyreactivity (PSR sort gate)” value is “high polyreactivity”.

For “QVQHVESGGGVVQAGGSLRLSCAASGIIFPRNALGWYRQAPGKERELVAAIRSSGGTTYYADSVKGRFTISRDNAKNTVYLQMNSLKPEDTAVFYCAAVTTSKFNYWGQGTQVTVSS”, the “polyreactivity (PSR sort gate)” value was “low polyreactivity”.

Take “QVQHVESGGRLVQAGGSLRLSCAASGITFRVYALGWYRQPRGKERELVAAITSSGGSTYYADSVKGRFTISRDNAKNTVYLQMNSLKPEHTAVDYCAAFSAVDSPLDYWGQGTQVTVSS”: the “polyreactivity (PSR sort gate)” value is recorded as “low polyreactivity”.

On to “QVQHVESGGVLVQAGGSLRLSCAASGSIFVIYAMGWYRQAPGQEWELVAAINRGSTNYADSVKGRFTISRDNAKNTVYLQMNSLKPEDTAVYYCAAYGRYGFGRVERYDYWGLGTQVTVSS”, for which the “polyreactivity (PSR sort gate)” value is given as “high polyreactivity”.

For “QVQHVESGGVLVQAGGSLRLSCAASGSTFARNALGWYRQAPGKETELVAAITTRGSSTYYADSVKGRFTISRDKAKNTVYLQLYSLKPEDTAVYYCAAVSRRSWYWGGYRQNGMGYWGQGTQVTVSS”, the “polyreactivity (PSR sort gate)” value is reported as “high polyreactivity”.

As to “QVQHVESGICLVQAGGSLRLSCAASGGTVTPYAMGWYRQAPGKERELVAAISRYGARTYYADSVKGRFTISRDNANNNVFLEMNSLKPEVSAVYYCAARWYARTYVRGGMVYWRQGTQVTVSS”, the “polyreactivity (PSR sort gate)” value is “high polyreactivity”.

Regarding “QVQHVESGLGLDQAAGSLRLSSAASGFIFWYSSMGWYREARGKERELVAAITGGAITYYADSVKGRFTITRDNAKNTVYLPMNSLIPEDTAVYYGADELTLGRFRYDYWGQGTQVTVSA”, the “polyreactivity (PSR sort gate)” value is “high polyreactivity”.

For the sequence “QVQHVESGRGLVQAGGRLRLSCADSGMTFGYSAMGWYRPAPGKDRELVAAISGTAGDTYYADSVKGRFTISRDNAKNTVYLQMNSLKAEVTAVYYCAKVKRWFGVTIELDYWGQGTQGTVSS”, the “polyreactivity (PSR sort gate)” value is reported as “low polyreactivity”.

For “QVQHVESGRGLVQAGGSLRLSCAASGGTFNRYAMGWYRQAPGKERELVAAITSSGGSTYYADSVKGRFTISRDNAMNTVYLHMNSLNPEDTAVYYCNAPGFRRLWGLGYDYWGQGTQVTVSS”, the “polyreactivity (PSR sort gate)” value was “high polyreactivity”.

Consider “QVQHVESGRGLVQAGGSLRLSCAASGRISYYYAMGWSRQAPGKEMELVAAITNVGGTYYADSVKGRFTISRDNAKNTVYLQMNSLKQEDTAVFYCAKDFPARHNYWYSSRFFDYWGQGTQGTVSS”, for which the “polyreactivity (PSR sort gate)” value was “low polyreactivity”.

As to “QVQHVESGRGLVQAGGSLRLSCAAYGRIPYKAMGWYKQAPGKERELVAAISRSGTRTYYADSVKGRYTISRDNAKNTVYLQMISLKPQDTAVYYCAAPVSGYSSDYWGQGTQVTVSS”, the “polyreactivity (PSR sort gate)” value is reported as “high polyreactivity”.

Consider “QVQHVESGVGLVQAGGRLRLSCAASGRTFSSNAMGWYRKAPGKERELVAAISSSGGRTYYADSVKGRFTISRDNAKNTVYLDMNSLKQEDTAVYYCAVVYFPIWASYPYWWEYDYWGHGTQVTVSS”, for which the “polyreactivity (PSR sort gate)” value is “high polyreactivity”.

Consider “QVQHVESGVGLVQAGGSLRLSCAASGFTFGWYAMGWYRQAPGKERELVASISWSGSTTYYADSVKGRFTISRDIAKNTVYLQMNSLKPEDTAVYYCNARRSYVRNDFDYWGQGTQVTVSS”, for which the “polyreactivity (PSR sort gate)” value was “high polyreactivity”.

For “QVQHVESGVGLVQAGGSLRLSCAASGITFLDTVLGWYRHAPAKEWELVADINSIGTSTSYADSVKGRFTISRDNAKNTVYLQMISLKPEDTADYYCAATSYARLAYYYGGQGTQVTVSS”, the “polyreactivity (PSR sort gate)” value is reported as “low polyreactivity”.

The record behind these values is the nanobody polyreactivity screen of Harvey et al. (2022).
